US20090156489A1 (Genentech, published 2009)

Experiments:
[1] = biological target: chicken Netrin-1 expressed in COS7 cells (chicken, UniProt Q90922 26-606); experiment: cell surface binding assay on transfected COS7 cells, fluorescence microscopy
Method: (§1) The resultant fusion proteins were expressed and used in binding assays over a panel of ˜400 putative cell surface transmembrane or GPI-anchored cell surface human proteins that were transiently expressed in COS7 cells. Purified ECD-Fc fusion proteins (0.5 μg/ml) or the crude baculovirus lysates were added to transiently transfected COS7 cells for 1-2 hours at room temperature. After 3 rinses with cold phosphate buffered saline (PBS), the bound protein was cross-linked to the cell surface with 4% paraformaldehyde. The bound Fc fusion protein was detected by biotinylated anti-human IgGFc and R-phycoerythrin-conjugated streptavidin (Jackson Immunoresearch). Cell surface staining was visualized by fluorescent microscopy and images were taken with the Penguin 800CL digital camera system (Pixera).
(§2) Although the NGL-1 and Netrin-G1 interaction appeared to be specific within the context of the screen, the classical Netrins and their known receptors, DCC and Unc5, were not included in the screen. Thus whether NGL-1 also interacts with Netrin-1 and its receptors was determined. Using the same cell surface binding assay, NGL-1, Netrin-G1, or Netrin-1 were expressed in COS7 cells (rows in FIG. 1a-i) and their ability to bind the IgG Fe fusion protein of NGL-1, Netrin-G1, or DCC (columns in FIG. 1a-i) was determined. […]

[2] = biological target: T1, DCC expressed on COS cells (human, UniProt P43146 26-1447); experiment: cell surface binding assay on transfected COS7 cells, fluorescence microscopy (data not shown)
T1 construct: whole, on cells
Method: as §1, §2

T1 sequence (P43146 26-1447): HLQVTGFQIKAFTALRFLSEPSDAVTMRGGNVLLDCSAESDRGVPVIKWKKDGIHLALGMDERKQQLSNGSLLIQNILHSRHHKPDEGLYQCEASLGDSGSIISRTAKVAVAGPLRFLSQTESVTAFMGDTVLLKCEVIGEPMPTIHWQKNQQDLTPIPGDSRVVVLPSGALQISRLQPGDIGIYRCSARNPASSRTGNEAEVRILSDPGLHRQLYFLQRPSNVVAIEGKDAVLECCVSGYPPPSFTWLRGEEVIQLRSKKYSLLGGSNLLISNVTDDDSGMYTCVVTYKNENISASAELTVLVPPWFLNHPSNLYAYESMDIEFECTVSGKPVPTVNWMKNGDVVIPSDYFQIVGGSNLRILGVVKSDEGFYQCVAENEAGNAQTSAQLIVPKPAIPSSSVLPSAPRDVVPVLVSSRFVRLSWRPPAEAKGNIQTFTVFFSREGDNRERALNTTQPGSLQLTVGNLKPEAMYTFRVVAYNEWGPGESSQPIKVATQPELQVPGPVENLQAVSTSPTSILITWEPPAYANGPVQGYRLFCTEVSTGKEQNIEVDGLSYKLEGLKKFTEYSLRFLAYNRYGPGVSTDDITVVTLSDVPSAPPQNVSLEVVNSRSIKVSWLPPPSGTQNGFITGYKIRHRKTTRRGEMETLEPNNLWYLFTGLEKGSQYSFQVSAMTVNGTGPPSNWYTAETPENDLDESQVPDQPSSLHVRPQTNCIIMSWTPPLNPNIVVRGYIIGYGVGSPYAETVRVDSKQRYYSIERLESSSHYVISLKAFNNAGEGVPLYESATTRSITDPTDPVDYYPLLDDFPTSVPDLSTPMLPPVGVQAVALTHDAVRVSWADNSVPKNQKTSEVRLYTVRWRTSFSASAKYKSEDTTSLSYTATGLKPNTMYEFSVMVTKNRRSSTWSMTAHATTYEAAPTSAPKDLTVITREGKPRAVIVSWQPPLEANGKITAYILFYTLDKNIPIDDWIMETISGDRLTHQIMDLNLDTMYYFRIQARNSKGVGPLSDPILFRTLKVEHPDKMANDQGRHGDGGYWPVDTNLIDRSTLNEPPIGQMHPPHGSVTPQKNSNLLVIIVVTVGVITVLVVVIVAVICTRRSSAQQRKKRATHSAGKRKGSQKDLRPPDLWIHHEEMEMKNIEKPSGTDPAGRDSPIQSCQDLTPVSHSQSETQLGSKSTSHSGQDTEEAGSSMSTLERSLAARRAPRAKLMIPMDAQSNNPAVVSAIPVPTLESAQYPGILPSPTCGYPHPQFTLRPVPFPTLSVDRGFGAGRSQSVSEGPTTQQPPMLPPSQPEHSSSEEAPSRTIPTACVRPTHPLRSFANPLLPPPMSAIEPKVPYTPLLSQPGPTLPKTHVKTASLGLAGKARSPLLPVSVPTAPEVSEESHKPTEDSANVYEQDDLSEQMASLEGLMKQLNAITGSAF

binding result [1]: no binding
binding result [2]: no binding
B1: human Netrin-G1-Fc (Fc fusion, UniProt Q9Y2I2-1 29-409, looked up)
chain: HYDLCKTQIYTEEGKVWDYMACQPESTDMTKYLKVKLDPPDITCGDPPETFCAMGNPYMCNNECDASTPELAHPPELMFDFEGRHPSTFWQSATWKEYPKPLQVNITLSWSKTIELTDNIVITFESGRPDQMILEKSLDYGRTWQPYQYYATDCLDAFHMDPKSVKDLSQHTVLEIICTEEYSTGYTTNSKIIHFEIKDRFAFFAGPRLRNMASLYGQLDTTKKLRDFFTVTDLRIRLLRPAVGEIFVDELHLARYFYAISDIKVRGRCKCNLHATVCVYDNSKLTCECEHNTTGPDCGKCKKNYQGRPWSPGSYLPIPKGTANTCIPSISSIGTNVCDNELLHCQNGGTCHNNVRCLCPAAYTGILCEKLRCEEAGSCGS
notes: extracellular domain; also called Netrin-G1-Fc fusion protein; not shown: human IgG1 Fc region
